The values that follow come from patent publication US20230056486.

The data set addresses T1, (GR)10 dipeptide repeat peptide.
T1 chain: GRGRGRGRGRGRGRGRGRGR

“And” between values parts separate entries of the source, which are not always exact repeats. Identical values can stand only once.

B1: clostripain (protein)
chain: NKNQKVTIMYYCDADNNLEGSLLNDIEEMKTGYKDSPNLNLIALVDRSPRYSSDEKVLGEDFSDTRLYKIEHNKANRLDGKNEFPEISTTSKYEANMGDPEVLKKFIDYCKSNYEADKYVLIMANHGGGAREKSNPRLNRAICWDDSNLDKNGEADCLYMGEISDHLTEKQSVDLLAFDACLMGTAEVAYQYRPGNGGFSADTLVASSPVVWGPGFKYDKIFDRIKAGGGTNNEDDLTLGGKEQNFDPATITNEQLGALFVEEQRDSTHANGRYDQHLSFYDLKKAESVKRAIDNLAVNLSNENKKSEIEKLRGSGIHTDLMHYFDEYSEGEWVEYPYFDVYDLCEKINKSENFSSKTKDLASNAMNKLNEMIVYSFGDPSNNFKEGKNGLSIFLPNGDKKYSTYYTSTKIPHWTMQSWYNSIDTVKYGLNPYGKLSWCKDGQDPEINKVGNWFELLDSWFDKTNDVTGGVNHYQW
As for B1, the (GR)10 concentration left at 0 min (LC/MS; 50 µM start; TFA added before enzyme) was 39.7 µM and 37.9 µM; the “(GR)10 concentration left at 30 min (LC/MS; 50 µM start)” value is “BLQ”; the “(GR)10 concentration left at 60 min (LC/MS; 50 µM start)” value is “BLQ”; the “(GR)10 concentration left at 120 min (LC/MS; 50 µM start)” value is “BLQ”. The (GR)10 left in CSF; Clostripain + DTT-Immobilized-5 min reaction (LC/MS; 200 µM (GR)10 in human CSF) (normalized µM) was determined as 58; the (GR)10 left in CSF; Clostripain + DTT-Immobilized-60 min reaction (LC/MS; 200 µM (GR)10 in human CSF) (normalized µM) was -0; the (GR)10 left in CSF; Clostripain-Immobilized-5 min reaction, no DTT (LC/MS; 200 µM (GR)10 in human CSF) (normalized µM) amounted to 395; the (GR)10 left in CSF; Clostripain-Immobilized-60 min reaction, no DTT (LC/MS; 200 µM (GR)10 in human CSF) (normalized µM) is -0. Moreover, the (GR)10 left; Clostripain + DTT-Immobilized-5 min reaction (LC/MS) (µM (normalized to GR concentration)) is -0, the (GR)10 left; Clostripain + DTT-immobilized-60 min reaction (LC/MS) (µM (normalized to GR concentration)) was -0, the (GR)10 left; Clostripain + DTT-in solution-5 min reaction (LC/MS) (µM (normalized to GR concentration)) was 5.7 and the (GR)10 left; Clostripain + DTT-in solution-60 min reaction (LC/MS) (µM (normalized to GR concentration)) is -0. Moreover, the (GR)10 left; Clostripain + DTT-resin wash from 5 min reaction (LC/MS) (µM (normalized to GR concentration)) was -0; the (GR)10 left; Clostripain + DTT-resin wash from 60 min reaction (LC/MS) (µM (normalized to GR concentration)) was -0; the (GR)10 left; Clostripain-Immobilized-5 min reaction, no DTT (LC/MS) was 0 µM; the (GR)10 left; Clostripain-immobilized-60 min reaction, no DTT (LC/MS) is 0 µM. Also, the (GR)10 left; Clostripain-in solution-5 min reaction, no DTT (LC/MS) amounted to 12.4 µM; the (GR)10 left; Clostripain-in solution-60 min reaction, no DTT (LC/MS) came out at 0 µM; the (GR)10 left; Clostripain-resin wash from 5 min reaction, no DTT (LC/MS) turned out to be 0 µM; the (GR)10 left; Clostripain-resin wash from 60 min reaction, no DTT (LC/MS) was 0 µM.

B2: Proteinase K (protein)
chain: AAQTNAPWGLARISSTSPGTSTYYYDESAGQGSCVYVIDTGIEASHPEFEGRAQMVKTYYYSSRDGNGHGTHCAGTVGSRTYGVAKKTQLFGVKVLDDNGSGQYSTIIAGMDFVASDKNNRNCPKGVVASLSLGGGYSSSVNSAAARLQSSGVMVAVAAGNNNADARNYSPASEPSVCTVGASDRYDRRSSFSNYGSVLDIFGPGTSILSTWIGGSTRSISGTSMATPHVAGLAAYLMTLGKTTAASACRYIADTANKGDLSNIPFGTVNLLAYNNYQA
As to B2, the (GR)10 concentration left at 0 min (LC/MS; 50 µM start; TFA added before enzyme) was 44.9 µM and 49.4 µM; the (GR)10 concentration left at 2.5 min (LC/MS; 50 µM start) was 55.8 µM and 55.4 µM; the (GR)10 concentration left at 5 min (LC/MS; 50 µM start) was 54.4 µM and 48.8 µM; the (GR)10 concentration left at 10 min (LC/MS; 50 µM start) was 50.3 µM and 44.1 µM.
